The results in this text go back to patent publication US20230357398A1 (MorphoSys, published 2023).

Assay [1] has as its target T1, cynomolgus CD3 epsilon, cell surface expressed (cynomolgus monkey PBMCs) (cynomolgus monkey, UniProt Q95LI5 22-198).
T1 construct: On the cells CD3 epsilon is part of the native CD3/TCR complex; also called cyno CD3
Nature of the assay: flow cytometry on cynomolgus monkey PBMCs, IgG titration.

Assay [2] concerns the target T2, cyCD3e(1-109)_F-chLys_avi (cynomolgus monkey).
T2 construct: also called cynomolgus monkey CD3 epsilon antigen
The experiment in a line: BLI (Octet HTX); FabCys captured on Fab-specific sensor, CD3e antigen as analyte; 1:1 model; less precise, dissociation at assay limit. As for the experimental part:
(§1) Affinity determination by determining kinetic rate constants was performed on an Octet HTX (FortéBIO, Sartorius AG) instrument as described below.
(§2) The different Fab-Cys samples diluted in assay buffer (D-PBS, 0.05% (v/v) PS 20, 0.1% (w/v) BSA) were captured onto Fab-specific BLI sensors with a loading level of approx. 0.5 nm. […] A blank sample with assay buffer was included for referencing, i.e. correcting for dissociation of captured antibody. The association phase was recorded for 300 s, followed by a dissociation phase of 900 s. After each cycle, the biosensors were regenerated two times with 10 mM Glycine HCl pH 1.7 to remove bound ligand/antibody complex, while maintaining the integrity of the capture surface. Between regeneration steps, biosensors were washed with assay buffer for 20 s.
(§3) The sensorgrams were fitted using Octet Data Analysis Software 10.0 (FortéBio, Sartorius AG) to determine kₒₙ and koff rate constants (using a 1:1 binding model), which were used to calculate KD.

In assay [3] the target is T3, human CD3 epsilon, cell surface expressed (human PBMCs / human T cells) (human, UniProt P07766 23-207).
T3 construct: On the cells CD3 epsilon is part of the native CD3/TCR complex; also called CD3 on human PBMCs
T3 sequence (P07766 23-207 limits assumed): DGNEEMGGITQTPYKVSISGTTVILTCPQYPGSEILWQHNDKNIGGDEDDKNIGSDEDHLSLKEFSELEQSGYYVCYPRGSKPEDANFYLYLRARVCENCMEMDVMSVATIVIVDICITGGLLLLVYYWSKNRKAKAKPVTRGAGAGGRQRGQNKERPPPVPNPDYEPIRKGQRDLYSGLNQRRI
Nature of the assay: flow cytometry (FACS) on human PBMCs. As for the experimental part:
(§4) Antibody staining was measured using a multiformat Flow Cytometer (NovoCyte, Agilent Technologies) and analyzed using NovoExpress software (Version 1.5.0). Lymphocytes were identified by morphological gating of forward and side scatters. EC₅₀ values were calculated using 4-parameter non-linear regression analysis in Prism software (GraphPad Software Inc., version 8.4.3).

The target of assay [4] is T2, cyCD3e(1-109)_F-chLys_avi. Nature of the assay: BLI (Octet HTX); FabCys captured on Fab-specific sensor, CD3e antigen as analyte; 1:1 model. On the procedure: as §1, §2, §3
In assay [5] the target is T4, Mature human CD3e(1-118)_FLAG-chLys_Avi (human).
T4 construct: also called human CD3 epsilon antigen
T4 sequence (chain, as listed by the source limits assumed): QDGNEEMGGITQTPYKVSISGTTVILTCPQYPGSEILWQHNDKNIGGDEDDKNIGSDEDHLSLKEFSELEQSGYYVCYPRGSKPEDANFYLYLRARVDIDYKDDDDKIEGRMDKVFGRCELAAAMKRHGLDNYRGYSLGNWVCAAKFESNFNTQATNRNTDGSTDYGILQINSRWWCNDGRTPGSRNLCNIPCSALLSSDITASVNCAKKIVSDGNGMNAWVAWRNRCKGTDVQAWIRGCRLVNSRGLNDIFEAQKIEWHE
The description is as above. On the procedure:
as §1, §2, §3

In assay [6] the target is T2, cyCD3e(1-109)_F-chLys_avi. Nature of the assay: BLI (Octet HTX); FabCys captured on Fab-specific sensor, CD3e antigen as analyte; 1:1 model; dissociation approaching assay limit. On the procedure:
as §1, §2, §3

Assay [7] has as its target T1, cynomolgus CD3 epsilon, cell surface …. The experiment in a line: flow cytometry (FACS) on cynomolgus PBMCs. On the procedure: as §4
In assay [8] the target is T2, cyCD3e(1-109)_F-chLys_avi. The experiment in a line: BLI (Octet HTX); FabCys captured on Fab-specific sensor, CD3e antigen as analyte; 1:1 model; rate set to assay limit. As for the experimental part: as §1, §2, §3

T1 sequence (Q95LI5 22-198 limits assumed): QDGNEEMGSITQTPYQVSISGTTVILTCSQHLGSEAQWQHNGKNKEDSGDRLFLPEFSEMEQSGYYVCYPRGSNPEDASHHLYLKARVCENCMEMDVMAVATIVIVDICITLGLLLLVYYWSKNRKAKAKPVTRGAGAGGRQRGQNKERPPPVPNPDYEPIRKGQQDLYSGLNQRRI
T2 sequence (chain, as listed by the source limits assumed): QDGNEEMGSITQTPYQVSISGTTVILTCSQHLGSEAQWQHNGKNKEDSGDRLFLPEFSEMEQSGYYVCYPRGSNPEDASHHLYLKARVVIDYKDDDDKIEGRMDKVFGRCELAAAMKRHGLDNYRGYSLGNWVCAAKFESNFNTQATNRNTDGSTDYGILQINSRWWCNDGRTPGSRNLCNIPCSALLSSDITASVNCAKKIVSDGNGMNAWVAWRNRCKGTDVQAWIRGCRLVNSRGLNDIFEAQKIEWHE

B1: MAB-1 (parental) (antibody, V domains shown)
VH: EVQLVESGGGLVQPGGSLRLSCAASGFTFSSYWMSWVRQAPGKGLEWVANIKQDGSEKYYVDSVKGRFTISRDNAKNSLYLQMNSLRAEDTAVYYCARGYSAEFAHRSGLDVWGQGTLVTVSS
VL: QSVLTQPPSASGTPGQRVTISCSGSSSNIGSNYVYWYQQLPGTAPKLLIYRNNQRPSGVPDRFSGSKSGTSASLAISGLRSEDEADYYCAAWDHHRSGAVFGGGTKLTVLG
notes: also called MAB-1 IgG; parental antibody MAB-1
With B1, in assay [1], the binding result was “binds”.

B2: MAB-8_h_FabCys (Fab, V domains shown)
VH: EVQLVESGGGLVQPGGSLRLSCAASGFTFRSHYMTWVRQAPGKGLEWVANIDYEGTRTYYAESVKGRFTISRDNAKNSLYLQMNSLRAEDTAVYYCARGYSAEFAHRSGLDVWGQGTLVTVSS
VL: QSVLTQPPSASGTPGQRVTISCSGSSSNIGSNYVYWYQQLPGTAPKLLIYRNNQRPSGVPDRFSGSKSGTSASLAISGLRSEDEADYYCAAWDRHSHGAVFGGGTKLTVLG
notes: Tagless disulfide-bridged human FabCys produced in HEK293 cells; also called MAB-8 Fab-Cys
Turning to B2, the Kd in assay [2] is roughly 0.1 nM; in assay [5] it was 0.3 nM. For the same molecule, the results for the concentration for a half-maximal effect (EC50) in assay [3] and in assay [7] were 5.5 nM and 3.2 nM, respectively. Moreover, the kon in assay [4] stood at 464000 M⁻¹ s⁻¹; in assay [5], 802000 M⁻¹ s⁻¹. The koff in assay [5] was 0.000258 s⁻¹; in assay [6], roughly 5.07e-05 s⁻¹.

B3: MAB-7_h_FabCys (Fab, V domains shown)
VH: EVQLVESGGGLVQPGGSLRLSCAASGFTFKSYYMSWVRQAPGKGLEWVANIDYQSQHAYYAESVKGRFTISRDNAKNSLYLQMNSLRAEDTAVYYCARGYSAEFAHRSGLDVWGQGTLVTVSS
VL: QSVLTQPPSASGTPGQRVTISCSGSSSNIGSNYVYWYQQLPGTAPKLLIYRNNQRPSGVPDRFSGSKSGTSASLAISGLRSEDEADYYCAAWDRHSHGAVFGGGTKLTVLG
notes: Tagless disulfide-bridged human FabCys produced in HEK293 cells; also called MAB-7 Fab-Cys
On to B3, for which the EC50 in assay [3] was 6.1 nM. Besides, in assay [4], the Kd worked out at 0.4 nM, the koff is 0.000158 s⁻¹ and the kon worked out at 370000 M⁻¹ s⁻¹. Also, in assay [5], the equilibrium dissociation constant (Kd) turned out to be 1.3 nM, the dissociation rate constant (koff) was 0.000627 s⁻¹ and the kon came out at 499000 M⁻¹ s⁻¹. In assay [7], this molecule displayed an EC50 of 3.7 nM.

B4: MAB-9_h_FabCys (Fab, V domains shown)
VH: EVQLVESGGGLVQPGGSLRLSCAASGFTFRSHYMTWVRQAPGKGLEWVANIDYEGTRTYYAESVKGRFTISRDNAKNSLYLQMNSLRAEDTAVYYCARGYSAEFAHRSGLDVWGQGTLVTVSS
VL: QSVLTQPPSASGTPGQRVTISCSGSSSNIGINYVYWYQQLPGTAPKLLIYRNNIRPSGVPDRFSGSKSGTSASLAISGLRSEDEADYYCAAWDRHSHGAVFGGGTKLTVLG
notes: Tagless disulfide-bridged human FabCys produced in HEK293 cells; also called MAB-9 Fab-Cys
As to B4, the Kd in assay [2] is no more than 0.1 nM; in assay [5], 0.2 nM. In addition, the half-maximal effective concentration (EC50) was 7.7 nM in assay [3] and 4.7 nM in assay [7]. For the same molecule, the on-rate constant (kon) in assay [4] was 446000 M⁻¹ s⁻¹; in assay [5], 724000 M⁻¹ s⁻¹. The dissociation rate constant (koff) in assay [5] is 0.000122 s⁻¹; in assay [8] it was no more than 5e-05 s⁻¹.

B5: MAB-12_h_FabCys (Fab, V domains shown)
VH: EVQLVESGGGLVQPGGSLRLSCAASGFTFRSHYMTWVRQAPGKGLEWVANIDYEGTRTYYAESVKGRFTISRDNAKNSLYLQMNSLRAEDTAVYYCARGYSAEFAHRSGLDVWGQGTLVTVSS
VL: QSVLTQPPSASGTPGQRVTISCSGSSSNIGANYVYWYQQLPGTAPKLLIYRNNQRPSGVPDRFSGSKSGTSASLAISGLRSEDEADYYCAAWDRHSHGAVFGGGTKLTVLG
notes: Tagless disulfide-bridged human FabCys produced in HEK293 cells; also called MAB-12 Fab-Cys
In the case of B5, the Kd in assay [2] is no more than 0.1 nM; in assay [5] it was 0.3 nM. Also, the values for the EC50 in assay [3] and in assay [7] were 5.7 nM and 4.1 nM, respectively. In addition, the on-rate constant (kon) in assay [4] was 445000 M⁻¹ s⁻¹; in assay [5], 650000 M⁻¹ s⁻¹. Further, the off-rate constant (koff) is 0.000188 s⁻¹ in assay [5] and no more than 5e-05 s⁻¹ in assay [8].

B6: MAB-13_h_FabCys (Fab, V domains shown)
VH: EVQLVESGGGLVQPGGSLRLSCAASGFTFRSHYMTWVRQAPGKGLEWVANIDYEGTRTYYAESVKGRFTISRDNAKNSLYLQMNSLRAEDTAVYYCARGYSAEFAHRSGLDVWGQGTLVTVSS
VL: QSVLTQPPSASGTPGQRVTISCSGSSSNIGINYVYWYQQLPGTAPKLLIYRNNQRPSGVPDRFSGSKSGTSASLAISGLRSEDEADYYCAAWDRHSHGAVFGGGTKLTVLG
notes: Tagless disulfide-bridged human FabCys produced in HEK293 cells; also called MAB-13 Fab-Cys
On to B6, for which the Kd was no more than 0.1 nM in assay [2] and 0.2 nM in assay [5]. Further, the EC50 in assay [3] was determined as 8.3 nM; in assay [7], 5.2 nM. The association rate constant (kon) in assay [4] is 413000 M⁻¹ s⁻¹; in assay [5], 705000 M⁻¹ s⁻¹. Further, the koff in assay [5] was 0.000134 s⁻¹; in assay [8] it was no more than 5e-05 s⁻¹.

B7: MAB-16_h_FabCys (Fab, V domains shown)
VH: EVQLVESGGGLVQPGGSLRLSCAASGFTFRSHYMTWVRQAPGKGLEWVANIDYEGTRTYYAESVKGRFTISRDNAKNSLYLQMNSLRAEDTAVYYCARGYSAEFAHRSGLDVWGQGTLVTVSS
VL: QSVLTQPPSASGTPGQRVTISCSGSSSNIGSNYVYWYQQLPGTAPKLLIYRNNQRPSGVPDRFSGSKSGTSASLAISGLRSEDEADYYCAGWDRRLHGAVFGGGTKLTVLG
notes: Tagless disulfide-bridged human FabCys produced in HEK293 cells; also called MAB-16 Fab-Cys
For the molecule B7, in assay [3], the concentration giving a half-maximal response (EC50) was found to be 3.3 nM. In assay [4], this molecule yielded an equilibrium dissociation constant (Kd) of 0.2 nM, a dissociation rate constant (koff) of 7.92e-05 s⁻¹ and an on-rate constant (kon) of 478000 M⁻¹ s⁻¹. Further, in assay [5], the dissociation constant (Kd) is 0.3 nM, the off-rate (koff) came to 0.000272 s⁻¹ and the association rate constant (kon) was 852000 M⁻¹ s⁻¹. This molecule also yielded an EC50 in assay [7] of 2 nM.
